The values below come from publication PMC3257521 (Biochemistry, 2011).

Series [1] concerns the target T1, Pnc1 (Saccharomyces cerevisiae, UniProt P53184). Nature of the series: HPLC assay of substrate activity. The following applies: for kcat: HPLC assay, no activity above detection limit of 10^−5 s^−1. It is filed as biochemical, S. cerevisiae.
In series [2] the target is T1, Pnc1. Description: Pnc1 competitive inhibition. The following applies: for inhibition pattern: double-reciprocal analysis versus nicotinamide. It is filed as biochemical, S. cerevisiae.
The target in series [3] is nicotinamidase from M. lysodeikticus. The note with it: cited from earlier work.
The target in series [4] is T1, Pnc1. Description: 15N kinetic isotope effect with substrates. It is filed as biochemical, S. cerevisiae.
In series [5] the target is T1, Pnc1. It is filed as biochemical, S. cerevisiae.
Series [6] relates to nicotinamidase from S. cerevisiae. The following applies: S. cerevisiae Pnc1, French et al.; cited from earlier work.
Series [7] concerns S. cerevisiae Pnc1. The following applies: French et al.; cited from earlier work.
The target of series [8] is T1, Pnc1. The note with it: 100 mM ammonium chloride and 5 mM nicotinic acid, 5 µM Pnc1, 150 minutes, pH 7.5; no nicotinamide detected.
Series [9] addresses T1, Pnc1. Description: Effect of EDTA or ZnCl2 on Pnc1 activity. It is filed as biochemical, S. cerevisiae. The note with it: data not shown.
Series [10] deals with nicotinamidase from Tortula cremoris. The following applies: cited from earlier work.
Series [11] addresses nicotinamidase from Fleischmann’s yeast. The note with it: cited from earlier work.
For series [12], the target named is T1, Pnc1. Description: Product inhibition by ammonium ion, HPLC assay. It is filed as biochemical, S. cerevisiae. The following applies: for inhibition pattern: versus nicotinamide, data not shown.
In series [13] the test system is Pnc1 WT or mutant. Description: Steady-state kinetic parameters of Pnc1 mutants, enzyme-coupled assay. The note with it: substrate nicotinamide; for kcat: pH 7.5. It is filed as biochemical, S. cerevisiae.
Series [14] relates to Pnc1 WT or mutant. Nature of the series: 13C kinetic isotope effect of Pnc1 mutants. It is filed as biochemical, S. cerevisiae. The following applies: substrate nicotinamide.
Series [15] relates to Pnc1 WT or mutant. Description: 15N kinetic isotope effect of Pnc1 mutants. It is filed as biochemical, S. cerevisiae. The following applies: substrate nicotinamide.
Substrate in series [16]: NC(=O)c1cccnc1
It is filed as biochemical, S. cerevisiae. The note with it: other: substrate of Pnc1, pH 7.5, 25.0 °C.

Substrate in series [17]: NC(=O)c1ccccc1
It is filed as biochemical, S. cerevisiae. The note with it: other: substrate of Pnc1, pH 7.5, 25.0 °C.

Substrate in series [18]: NC(=O)c1cnccn1
It is filed as biochemical, S. cerevisiae. The following applies: other: substrate of Pnc1, pH 7.5, 25.0 °C.

Substrate in series [19]: Cc1cncc(C(N)=O)c1
It is filed as biochemical, S. cerevisiae. The following applies: other: substrate of Pnc1, pH 7.5, 25.0 °C.

Substrate in series [20]: NC(=S)c1cccnc1
It is filed as biochemical, S. cerevisiae. The following applies: other: substrate of Pnc1, pH 7.5, 25.0 °C.

Some results are limits rather than exact numbers.

In general, kcat refers to the maximal rate divided by the concentration of active sites. Turning to `NC(=O)c1ccc[n+]([C@@H]2O[C@H](COP(=O)([O-])O)[C@@H](O)[C@H]2O)c1` [nicotinamide mononucleotide (NMN^+), nicotinamide mononucleotide], in series [1], the substrate activity entry is recorded as “not substrates” and the kcat is recorded as < 10^−5 ^c s^−1.
What is called Ki is a measure of affinity in units of concentration, obtained from inhibition or displacement. As for `O=Cc1ccccc1` [benzaldehyde], the figures for the Ki in [2] and in series [3] were 20600 ± 5700 µM and 1800 µM, respectively. Also, the “fold less potent inhibitor compared to nicotinaldehyde” value in series [2] is given as 22,000 fold.
In the case of `NC(=S)c1cccnc1` [thionicotinamide], the “increase in 15N KIE value compared to nicotinamide” value in series [4] was 1.4%. Moreover, in series [4] (on V/K, pH 7.5), the “15N KIE” value is recorded as 1.0262 ± 0.0019.
As for `NC(=O)C1=CN([C@@H]2O[C@H](COP(=O)(O)OP(=O)(O)OC[C@H]3O[C@@H](n4cnc5c(N)ncnc54)[C@H](O)[C@@H]3O)[C@@H](O)[C@H]2O)C=CC1` [β-nicotinamide adenine dinucleotide], in series [1], the substrate activity entry is reported as “not substrates” and the kcat was < 10^−5 ^c s^−1. Moreover, in series [1] (listed as NAD^+), the kcat is given as < 10^−5 s^−1.
Regarding `C[n+]1cccc(C(N)=O)c1` [1-methylnicotinamide], the “fold decreased kcat/Km compared to nicotinamide” value in series [5] is given as 8400 fold. Further, in series [6], the substrate activity entry is reported as “no activity”.
Take `O=C(O)c1cccnc1` [nicotinic acid]: the inhibition result in [7] was “no inhibition”. In addition, the “reverse reaction rate (upper estimate)” value in series [8] is < 10^−5 s^−1. In addition, in series [2], affinity was put at a Ki of 120 ± 19 µM and the inhibition pattern result is given as “competitive inhibition patterns”.
Regarding `[Cl-].[Cl-].[Zn+2]` [ZnCl2], the “effect on activity of wild type Pnc1” value in series [9] (2 mM) was “failed to increase activity”.
For the molecule `CC(=O)c1cccnc1` [3-acetylpyridine], the Ki in series [2] is 316 ± 101 µM; in [3], 160 µM; in series [10] it was 305 µM; in [11], 65 µM. The inhibition pattern result in [2] is given as “competitive inhibition”.
As for `Cl.N` [ammonium chloride], in series [12], the “concentration required for inhibition” value is “greater than 10 mM” and the inhibition pattern result was “non-competitive inhibition”. Further, the inhibition pattern entry in series [12] (listed as ammonium ion) is given as “non-competitive inhibition patterns”.
Turning to `O=C(O)CN(CCN(CC(=O)O)CC(=O)O)CC(=O)O` [EDTA, ethylenediaminetetraacetic acid], the “inhibition of Pnc1” value in series [9] (10 mM) is “did not inhibit”.
On to `O=C(O)c1cnccn1` [pyrazinoic acid], for which, in series [2], the affinity corresponds to a Ki of 6700 ± 1700 µM, the “fold higher Ki value compared to nicotinic acid” value was 56 fold and the inhibition pattern entry is given as “competitive inhibition patterns”.

B1: Pnc1 (Saccharomyces cerevisiae S288C) (protein)
chain: MKTLIVVDMQNDFISPLGSLTVPKGEELINPISDLMQDADRDWHRIVVTRDWHPSRHISFAKNHKDKEPYSTYTYHSPRPGDDSTQEGILWPVHCVKNTWGSQLVDQIMDQVVTKHIKIVDKGFLTDREYYSAFHDIWNFHKTDMNKYLEKHHTDEVYIVGVALEYCVKATAISAAELGYKTTVLLDYTRPISDDPEVINKVKEELKAHNINVVDK
As a reminder, the Km is the substrate concentration at which the rate is half of its maximum. By kcat/Km is commonly meant the turnover number divided by the Michaelis constant. Regarding B1, the kcat in series [13] turned out to be 0.69 ± 0.04 s⁻¹; in [16], 0.69 ± 0.04 s⁻¹; in series [17], 0.0088 ± 0.0004 s⁻¹; in [18], 2.56 ± 0.1 s⁻¹; in series [19], 1.75 ± 0.05 s⁻¹. In addition, the “13C KIE” value is ~ 1.25% in series [14] (as percent) and 1.0125 ± 0.0004 in [14] (pH 7.5). The “15N KIE” value in series [15] (as percent) was ~ 1.25%; in series [15] (pH 7.5), 1.0122 ± 0.0002. The Michaelis constant (Km) in series [16] was 9.6 ± 2.1 µM; in series [17], 25 ± 7 µM; in series [18] it was 157 ± 16 µM; in series [19] it was 61 ± 6 µM. For the same molecule, the specificity constant (kcat/Km) in series [16] amounted to 72000 ± 12000 M⁻¹ s⁻¹; in series [17], 350 ± 90 M⁻¹ s⁻¹; in series [18], 16000 ± 1000 M⁻¹ s⁻¹; in series [19] it was 29000 ± 2000 M⁻¹ s⁻¹; in series [20], 50 ± 17 M⁻¹ s⁻¹.

B2: H94A (protein, UniProt P53184 1-216, looked up, variant H94A)
Nicotinamidase: MKTLIVVDMQNDFISPLGSLTVPKGEELINPISDLMQDADRDWHRIVVTRDWHPSRHISFAKNHKDKEPYSTYTYHSPRPGDDSTQEGILWPVACVKNTWGSQLVDQIMDQVVTKHIKIVDKGFLTDREYYSAFHDIWNFHKTDMNKYLEKHHTDEVYIVGVALEYCVKATAISAAELGYKTTVLLDYTRPISDDPEVINKVKEELKAHNINVVDK
B2: the kcat in [13] was found to be 0.020 ± 0.002 s⁻¹.

B3: D51A (protein, UniProt P53184 1-216, looked up, variant D51A)
Nicotinamidase: MKTLIVVDMQNDFISPLGSLTVPKGEELINPISDLMQDADRDWHRIVVTRAWHPSRHISFAKNHKDKEPYSTYTYHSPRPGDDSTQEGILWPVHCVKNTWGSQLVDQIMDQVVTKHIKIVDKGFLTDREYYSAFHDIWNFHKTDMNKYLEKHHTDEVYIVGVALEYCVKATAISAAELGYKTTVLLDYTRPISDDPEVINKVKEELKAHNINVVDK
For B3, in series [13], the kcat was determined as 0.020 ± 0.005 s⁻¹. Moreover, the “13C KIE” value in series [14] (pH 7.5) is reported as 1.0075 ± 0.0015. For the same molecule, in [15] (pH 7.5), the “15N KIE” value turned out to be 1.0166 ± 0.0018.

B4: K122A (protein, UniProt P53184 1-216, looked up, variant K122A)
Nicotinamidase: MKTLIVVDMQNDFISPLGSLTVPKGEELINPISDLMQDADRDWHRIVVTRDWHPSRHISFAKNHKDKEPYSTYTYHSPRPGDDSTQEGILWPVHCVKNTWGSQLVDQIMDQVVTKHIKIVDAGFLTDREYYSAFHDIWNFHKTDMNKYLEKHHTDEVYIVGVALEYCVKATAISAAELGYKTTVLLDYTRPISDDPEVINKVKEELKAHNINVVDK
For B4, in series [13], the “fold lower kcat compared to Pnc1 WT” value came out at 16 fold and the kcat worked out at 0.044 ± 0.023 s⁻¹.

B5: D51N (protein, UniProt P53184 1-216, looked up, variant D51N)
Nicotinamidase: MKTLIVVDMQNDFISPLGSLTVPKGEELINPISDLMQDADRDWHRIVVTRNWHPSRHISFAKNHKDKEPYSTYTYHSPRPGDDSTQEGILWPVHCVKNTWGSQLVDQIMDQVVTKHIKIVDKGFLTDREYYSAFHDIWNFHKTDMNKYLEKHHTDEVYIVGVALEYCVKATAISAAELGYKTTVLLDYTRPISDDPEVINKVKEELKAHNINVVDK
On to B5, for which the “fold more active than the D51A mutant” value in series [13] is reported as 3 fold. Further, the kcat in series [13] turned out to be 0.064 ± 0.012 s⁻¹. Besides, the “13C KIE” value in series [14] (as percent) is reported as ~ 0.5%; in series [14] (pH 7.5) it was 1.0058 ± 0.0006. For the same molecule, the “15N KIE” value in series [15] (as percent) was ~ 0.5%; in [15] (pH 7.5), 1.0047 ± 0.0006.

B6: H53A (protein, UniProt P53184 1-216, looked up, variant H53A)
Nicotinamidase: MKTLIVVDMQNDFISPLGSLTVPKGEELINPISDLMQDADRDWHRIVVTRDWAPSRHISFAKNHKDKEPYSTYTYHSPRPGDDSTQEGILWPVHCVKNTWGSQLVDQIMDQVVTKHIKIVDKGFLTDREYYSAFHDIWNFHKTDMNKYLEKHHTDEVYIVGVALEYCVKATAISAAELGYKTTVLLDYTRPISDDPEVINKVKEELKAHNINVVDK
As to B6, in series [13], the kcat was 0.014 ± 0.002 s⁻¹.

B7: D8A (protein, UniProt P53184 1-216, looked up, variant D8A)
Nicotinamidase: MKTLIVVAMQNDFISPLGSLTVPKGEELINPISDLMQDADRDWHRIVVTRDWHPSRHISFAKNHKDKEPYSTYTYHSPRPGDDSTQEGILWPVHCVKNTWGSQLVDQIMDQVVTKHIKIVDKGFLTDREYYSAFHDIWNFHKTDMNKYLEKHHTDEVYIVGVALEYCVKATAISAAELGYKTTVLLDYTRPISDDPEVINKVKEELKAHNINVVDK
For the molecule B7, in series [13], the “fold lower kcat compared to Pnc1 WT” value was found to be 767 fold and the kcat was found to be 0.0009 ± 0.0001 s⁻¹.

B8: D8N (protein, UniProt P53184 1-216, looked up, variant D8N)
Nicotinamidase: MKTLIVVNMQNDFISPLGSLTVPKGEELINPISDLMQDADRDWHRIVVTRDWHPSRHISFAKNHKDKEPYSTYTYHSPRPGDDSTQEGILWPVHCVKNTWGSQLVDQIMDQVVTKHIKIVDKGFLTDREYYSAFHDIWNFHKTDMNKYLEKHHTDEVYIVGVALEYCVKATAISAAELGYKTTVLLDYTRPISDDPEVINKVKEELKAHNINVVDK
For B8, in series [13], the “fold lower kcat compared to Pnc1 WT” value worked out at 1150 fold and the kcat is 0.0006 ± 0.0001 s⁻¹.

B9: D8E (protein, UniProt P53184 1-216, looked up, variant D8E)
Nicotinamidase: MKTLIVVEMQNDFISPLGSLTVPKGEELINPISDLMQDADRDWHRIVVTRDWHPSRHISFAKNHKDKEPYSTYTYHSPRPGDDSTQEGILWPVHCVKNTWGSQLVDQIMDQVVTKHIKIVDKGFLTDREYYSAFHDIWNFHKTDMNKYLEKHHTDEVYIVGVALEYCVKATAISAAELGYKTTVLLDYTRPISDDPEVINKVKEELKAHNINVVDK
Turning to B9, in series [13], the “fold lower kcat compared to Pnc1 WT” value is reported as 100 fold and the kcat came out at 0.0070 ± 0.0001 s⁻¹. In addition, in series [14] (pH 7.5), the “13C KIE” value is 1.0258 ± 0.0012. In addition, in series [15] (pH 7.5), the “15N KIE” value is on record as 1.0218 ± 0.0015.
